The experiment addresses T1, KRAS G12V peptide on HLA-A*11 (human).
T1 peptide: VVGAVGVGK
As to the kind of experiment: cytokine release.

B1: CR-KVA11-N03 (TCR, V domains shown)
Valpha: RKEVEQDPGPFNVPEGATVAFNCTYSNSASQSFFWYRQDCRKEPKLLMSVYSSGNEDGRFTAQLNRASQYISLLIRDSKLSDSATYLCVVPGGTGGGNKLTFGTGTQLKVEL
Vbeta: DTAVSQTPKYLVTQMGNDKSIKCEQNLGHDTMDWYKQDSKKFLKIMFSYNNKELIINETVPNRFSPKSPDKAHLNLHINSLELGDSAVYFCASSHWGAQETQYFGPGTRLLVL
B1: the binding result is “recognises”.

Source of the values: patent EP4733322A1 (dated 2026).
